# Results from patent US20140294898A1 (published 2014).
# Positions of bridges follow the written chain, without caps; N, C: chain ends. Non-standard residues stand in square brackets, D forms with d. NMeNle = CCCC[C@H](NC)C(=O)O; NMeA = CN[C@@H](C)C(=O)O
# B1: Compound No. 3 (peptide)
# peptide: {CH2CO}-F[NMeA]NPHRSWRW[NMeNle][NMeNle]LCG-NH2
# modifications: thioether N-14
# SMILES: CCCC[C@H]1C(=O)N(C)[C@@H](CCCC)C(=O)N[C@@H](CC(C)C)C(=O)N[C@H](C(=O)NCC(N)=O)CSCC(=O)N[C@@H](Cc2ccccc2)C(=O)N(C)[C@@H](C)C(=O)N[C@@H](CC(N)=O)C(=O)N2CCC[C@H]2C(=O)N[C@@H](Cc2c[nH]cn2)C(=O)N[C@@H](CCCNC(=N)N)C(=O)N[C@@H](CO)C(=O)N[C@@H](Cc2c[nH]c3ccccc23)C(=O)N[C@@H](CCCNC(=N)N)C(=O)N[C@@H](Cc2c[nH]c3ccccc23)C(=O)N1C
# notes: Macrocyclic peptide; X stands for norleucine
# B2: Compound No. 4 (peptide)
# peptide: {CH2CO}-F[NMeA]NPLRSWRW[NMeNle][NMeNle]LCG-NH2
# modifications: thioether N-14
# SMILES: CCCC[C@H]1C(=O)N(C)[C@@H](CCCC)C(=O)N[C@@H](CC(C)C)C(=O)N[C@H](C(=O)NCC(N)=O)CSCC(=O)N[C@@H](Cc2ccccc2)C(=O)N(C)[C@@H](C)C(=O)N[C@@H](CC(N)=O)C(=O)N2CCC[C@H]2C(=O)N[C@@H](CC(C)C)C(=O)N[C@@H](CCCNC(=N)N)C(=O)N[C@@H](CO)C(=O)N[C@@H](Cc2c[nH]c3ccccc23)C(=O)N[C@@H](CCCNC(=N)N)C(=O)N[C@@H](Cc2c[nH]c3ccccc23)C(=O)N1C
# notes: as for B1
# B3: Compound No. 80 (peptide)
# peptide: FFXGDAFYGWYLCG
# HELM: PEPTIDE1{[O=C(C[*:3])[*:2]].F.[meF].[CCCC[C@@H](C(=O)[*:2])N(C)[*:1]].[Sar].D.A.[meF].Y.[Sar].W.Y.L.C.G.[am]}$PEPTIDE1,PEPTIDE1,1:R3-14:R3$$$V2.0
# SMILES: CCCC[C@H]1C(=O)N(C)CC(=O)N[C@@H](CC(=O)O)C(=O)N[C@@H](C)C(=O)N(C)[C@@H](Cc2ccccc2)C(=O)N[C@@H](Cc2ccc(O)cc2)C(=O)N(C)CC(=O)N[C@@H](Cc2c[nH]c3ccccc23)C(=O)N[C@@H](Cc2ccc(O)cc2)C(=O)N[C@@H](CC(C)C)C(=O)N[C@H](C(=O)NCC(N)=O)CSCC(=O)N[C@@H](Cc2ccccc2)C(=O)N(C)[C@@H](Cc2ccccc2)C(=O)N1C
# notes: Variant of Compound No. 71: Val6 to Ala
# B4: Compound No. 83 (peptide)
# peptide: FFXGDVFAGWYLCG
# HELM: PEPTIDE1{[O=C(C[*:3])[*:2]].F.[meF].[CCCC[C@@H](C(=O)[*:2])N(C)[*:1]].[Sar].D.V.[meF].A.[Sar].W.Y.L.C.G.[am]}$PEPTIDE1,PEPTIDE1,1:R3-14:R3$$$V2.0
# SMILES: CCCC[C@H]1C(=O)N(C)CC(=O)N[C@@H](CC(=O)O)C(=O)N[C@@H](C(C)C)C(=O)N(C)[C@@H](Cc2ccccc2)C(=O)N[C@@H](C)C(=O)N(C)CC(=O)N[C@@H](Cc2c[nH]c3ccccc23)C(=O)N[C@@H](Cc2ccc(O)cc2)C(=O)N[C@@H](CC(C)C)C(=O)N[C@H](C(=O)NCC(N)=O)CSCC(=O)N[C@@H](Cc2ccccc2)C(=O)N(C)[C@@H](Cc2ccccc2)C(=O)N1C
# notes: Variant of Compound No. 71: Tyr8 to Ala
# B5: Compound No. 82 (peptide)
# peptide: FFXGDVFYGWYLCG
# HELM: PEPTIDE1{[O=C(C[*:3])[*:2]].F.[meF].[CCCC[C@@H](C(=O)[*:2])N(C)[*:1]].[Sar].D.V.F.Y.[Sar].W.Y.L.C.G.[am]}$PEPTIDE1,PEPTIDE1,1:R3-14:R3$$$V2.0
# SMILES: CCCC[C@H]1C(=O)N(C)CC(=O)N[C@@H](CC(=O)O)C(=O)N[C@@H](C(C)C)C(=O)N[C@@H](Cc2ccccc2)C(=O)N[C@@H](Cc2ccc(O)cc2)C(=O)N(C)CC(=O)N[C@@H](Cc2c[nH]c3ccccc23)C(=O)N[C@@H](Cc2ccc(O)cc2)C(=O)N[C@@H](CC(C)C)C(=O)N[C@H](C(=O)NCC(N)=O)CSCC(=O)N[C@@H](Cc2ccccc2)C(=O)N(C)[C@@H](Cc2ccccc2)C(=O)N1C
# notes: Variant of Compound No. 71: mPhe7 to Phe (N-methyl removed)
# B6: Compound No. 75 (peptide)
# peptide: FFAGDVFYGWYLCG
# HELM: PEPTIDE1{[O=C(C[*:3])[*:2]].F.[meF].[meA].[Sar].D.V.[meF].Y.[Sar].W.Y.L.C.G.[am]}$PEPTIDE1,PEPTIDE1,1:R3-14:R3$$$V2.0
# SMILES: CC(C)C[C@@H]1NC(=O)[C@H](Cc2ccc(O)cc2)NC(=O)[C@H](Cc2c[nH]c3ccccc23)NC(=O)CN(C)C(=O)[C@H](Cc2ccc(O)cc2)NC(=O)[C@H](Cc2ccccc2)N(C)C(=O)[C@H](C(C)C)NC(=O)[C@H](CC(=O)O)NC(=O)CN(C)C(=O)[C@H](C)N(C)C(=O)[C@H](Cc2ccccc2)N(C)C(=O)[C@H](Cc2ccccc2)NC(=O)CSC[C@@H](C(=O)NCC(N)=O)NC1=O
# notes: Variant of Compound No. 71: mNle3 to mAla
# B7: Compound No. 4 (peptide)
# peptide: {CH2CO}-F[NMeA]NPLRSWRW[NMeNle][NMeNle]LCG-NH2
# modifications: thioether N-14
# SMILES: CCCC[C@H]1C(=O)N(C)[C@@H](CCCC)C(=O)N[C@@H](CC(C)C)C(=O)N[C@H](C(=O)NCC(N)=O)CSCC(=O)N[C@@H](Cc2ccccc2)C(=O)N(C)[C@@H](C)C(=O)N[C@@H](CC(N)=O)C(=O)N2CCC[C@H]2C(=O)N[C@@H](CC(C)C)C(=O)N[C@@H](CCCNC(=N)N)C(=O)N[C@@H](CO)C(=O)N[C@@H](Cc2c[nH]c3ccccc23)C(=O)N[C@@H](CCCNC(=N)N)C(=O)N[C@@H](Cc2c[nH]c3ccccc23)C(=O)N1C
# notes: also called Compound 4
# B8: Compound No. 71 (peptide)
# peptide: FFXGDVFYGWYLCG
# HELM: PEPTIDE1{[O=C(C[*:3])[*:2]].F.[meF].[CCCC[C@@H](C(=O)[*:2])N(C)[*:1]].[Sar].D.V.[meF].Y.[Sar].W.Y.L.C.G.[am]}$PEPTIDE1,PEPTIDE1,1:R3-14:R3$$$V2.0
# SMILES: CCCC[C@H]1C(=O)N(C)CC(=O)N[C@@H](CC(=O)O)C(=O)N[C@@H](C(C)C)C(=O)N(C)[C@@H](Cc2ccccc2)C(=O)N[C@@H](Cc2ccc(O)cc2)C(=O)N(C)CC(=O)N[C@@H](Cc2c[nH]c3ccccc23)C(=O)N[C@@H](Cc2ccc(O)cc2)C(=O)N[C@@H](CC(C)C)C(=O)N[C@H](C(=O)NCC(N)=O)CSCC(=O)N[C@@H](Cc2ccccc2)C(=O)N(C)[C@@H](Cc2ccccc2)C(=O)N1C
# notes: also called Compound 71
# B9: Compound No. 2 (peptide)
# peptide: {CH2CO}-F[NMeA]NPHHSWRW[NMeNle][NMeNle]LCG-NH2
# modifications: thioether N-14
# SMILES: CCCC[C@H]1C(=O)N(C)[C@@H](CCCC)C(=O)N[C@@H](CC(C)C)C(=O)N[C@H](C(=O)NCC(N)=O)CSCC(=O)N[C@@H](Cc2ccccc2)C(=O)N(C)[C@@H](C)C(=O)N[C@@H](CC(N)=O)C(=O)N2CCC[C@H]2C(=O)N[C@@H](Cc2c[nH]cn2)C(=O)N[C@@H](Cc2c[nH]cn2)C(=O)N[C@@H](CO)C(=O)N[C@@H](Cc2c[nH]c3ccccc23)C(=O)N[C@@H](CCCNC(=N)N)C(=O)N[C@@H](Cc2c[nH]c3ccccc23)C(=O)N1C
# notes: also called Compound 2
# B10: Compound No. 99 (peptide)
# peptide: {CH2CO}-FLIVIRDRVFRCG-NH2
# modifications: thioether N-12
# notes: also called Compound 99
# Biological target: T1, hPDL1(19-239)-TVMV-His (human, UniProt Q9NZQ7 19-239)
# T1 construct: The text says amino acids 18-239, the construct name says 19-239; also called PD-L1-His; PD-L1-TVMV-His
# Experiment: HTRF competition, inhibitor titrated against PD-1-Ig binding to PD-L1-His
# Procedure: All binding studies were performed in an HTRF assay buffer consisting of dPBS supplemented with 0.1% (w/v) bovine serum albumin and 0.05% (v/v) Tween-20. […] PD-L1 fusion proteins from either human, cynomologous macaques, or mouse were used. HTRF detection was achieved using europium crypate-labeled anti-Ig monoclonal antibody (1 nM final) and allophycocyanin (APC) labeled anti-His monoclonal antibody (20 nM final). Antibodies were diluted in HTRF detection buffer and 5 μl was dispensed on top of binding reaction. The reaction was allowed to equilibrate for 30 minutes and signal (665 nm/620 nm ratio) was obtained using an EnVision fluorometer. […]
# T1 sequence (Q9NZQ7 other isoform, or with tags, fused parts or gaps limits assumed): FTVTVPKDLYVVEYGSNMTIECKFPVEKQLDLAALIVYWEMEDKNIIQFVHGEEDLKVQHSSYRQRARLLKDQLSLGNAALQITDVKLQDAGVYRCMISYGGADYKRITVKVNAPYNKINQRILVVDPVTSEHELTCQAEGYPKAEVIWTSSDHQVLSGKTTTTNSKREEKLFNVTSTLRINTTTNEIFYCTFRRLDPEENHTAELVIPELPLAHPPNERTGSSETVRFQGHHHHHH
row,IC50 [nM],Binder
1,13,B1
2,15,B2

# Biological target: T2, human PD-L1 (human, UniProt Q9NZQ7 19-239, limits assumed)
# T2 construct: also called Hu PD-L1; hPD-L1
# Experiment: cell binding assay, inhibition of human PD-L1/PD-1 binding (cell format not given)
# T2 sequence (Q9NZQ7 19-239 limits assumed): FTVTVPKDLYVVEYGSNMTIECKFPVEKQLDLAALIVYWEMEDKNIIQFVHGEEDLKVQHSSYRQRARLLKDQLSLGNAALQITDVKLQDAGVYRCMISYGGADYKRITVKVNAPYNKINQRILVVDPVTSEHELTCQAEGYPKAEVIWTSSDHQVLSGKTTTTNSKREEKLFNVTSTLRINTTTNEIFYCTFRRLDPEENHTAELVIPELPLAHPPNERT
row,IC50 [nM],Binder
1,723,B3
2,75,B4
3,203,B5
4,438,B6

# Biological target: T3, human PD-L1 (human, UniProt Q9NZQ7 19-239, limits assumed)
# T3 construct: also called Hu PD-L1; hPD-L1
# Experiment: cell binding assay, inhibition of human PD-L1/PD-1 binding on cells (cell format not given)
# T3 sequence (Q9NZQ7 19-239 limits assumed): as above
row,IC50 [nM],Binder
1,15,B7
2,10,B8
3,43,B9
4,1400,B10
